# Assay results as given in paper PMC11960969, “Mdga2 deficiency leads to an aberrant activation of BDNF/TrkB signaling that underlies autism-relevant synaptic and behavioral changes in mice” (PLOS Biology, 2025).
# B1: MDGA2-ΔMAM: truncated form of MDGA2 lacking its MAM domain (protein)
# chain: PPTVRIVHSGLACNIEEERYSERVYTIREGETLELTCLVTGHPRPQIRWTKTAGSASDRFQDSSVFNETLRITNIQRHQGGRYYCKAENGLGSPAIKSIRVDVYYLDDPVVTVHQSIGEAKEQFYYERTVFLRCVANSNPPVRYSWRRGQEVLLQGSDKGVEIYEPFFTQGETKILKLKNLRPQDYANYSCIASVRNVCNIPDKMVSFRLSNKTASPSIKLLVDDPIVVNPGEAITLVCVTTGGEPAPSLTWVRSFGTLPEKTVLNGGTLTIPAITSDDAGTYSCIANNNVGNPAKKSTNIIVRALKKGRFWITPDPYHKDDNIQIGREVKISCQVEAVPSEELTFSWFKNGRPLRSSERMVITQTDPDVSPGTTNLDIIDLKFTDFGTYTCVASLKGGGISDISIDVNISSSTVPPNLTVPQEKSPLVTREGDTIELQCQVTGKPKPIILWSRADKEVAMPDGSMQMESYDGTLRIVNVSREMSGMYRCQTSQYNGFNVKPREALVQLIVQYPPAVEPAFLEIRQGQDRSVTMSCRVLRAYPIRVLTYEWRLGNKLLRTGQFDSQEYTEYAVKSLSNENYGVYNCSIINEAGAGRCSFLVTGKAYAPEFYYDTYNPVWQNRHRVYSYSLQWTQMNPDAVDRIVAYRLGIRQAGQQRWWEQEIKINGNIQKGELITYNLTELIKPEAYEVRLTPLTKFGEGDSTIRVIKYSAPVNPHLREQDLATKNSVD
# modifications: left off: GFP, end not stated, kept
# notes: truncated form of MDGA2 lacking its MAM domain
# Assays:
# TrkB (TrkB-Flag) = assay: Co-IP of MDGA2 and its truncations with TrkB-Flag in HEK293T cells; format: binding, human; conditions: HEK293T cells co-transfected with TrkB-Flag and GFP-tagged MDGA2 constructs
# Protocol: (§1) Fig 3 MDGA2 interacts with TrkB and suppresses TrkB activity. (A) Primary hippocampal neurons derived from Mdga2^ +/− (Het) mice and their wild-type (WT) littermates at DIV 7 were treated with different doses of BDNF for 30 min. Equal amounts of protein lysates were subjected to immunoprecipitation (IP) with an anti-TrkB antibody, followed by immunoblotting with an anti-phosphotyrosine (pTyr) antibody or the anti-TrkB antibody. The pTyr levels were quantified by densitometry, normalized to total TrkB levels, and then compared to those of WT controls. n = 3 per group. (B) WT mouse brain lysates were subjected to IP with an anti-MDGA2 antibody and a control IgG, and immunoblotted (IB) for the components indicated. mBDNF, mature BDNF; ImBDNF, immature BDNF. (C) Hippocampal neurons from WT mice at DIV 7 were immunostained with antibodies against MDGA2 (red) and TrkB (green), and then counter-stained with DAPI (blue). Images were acquired by a confocal microscope. Scale bar: 10 μm. (D) Surface plasmon resonance (SPR) analysis of the binding between recombinant MDGA2 protein and recombinant TrkB protein. TrkB was immobilized on a Biacore CM5 chip and tested for its binding with MDGA2 at the concentrations indicated. (E) Computer simulation of the binding mode of TrkB and MDGA2. The predicted binding domain of TrkB (the d5 domain) is highlighted by a red square and labeled in brown. The predicted binding domain of MDGA2 (the MAM domain) is highlighted by a red square and labeled in yellow. […] Immunoprecipitated TrkB levels were quantified by densitometry, normalized to input levels, and compared to respective controls (set to one arbitrary units). n = 3 per group. […] Levels of phosphorylated proteins were quantified by densitometry, normalized to respective total protein levels and compared to controls (set to one arbitrary units). n = 6 per group. […] P-values were determined by two-tailed unpaired Student t-test in (A) and one-way ANOVA with Tukey’s multiple comparisons test in (H, I, J). *p < 0.05, **p < 0.01, ***p < 0.001, ns: not significant. […]
# BDNF-TrkB interaction = assay: BDNF-TrkB Co-IP (anti-BDNF or anti-TrkB) in primary neurons / brain of Het, KO, WT and in WT neurons transfected with MDGA2 or ΔMAM; format: cell-based, mouse; conditions: IP anti-BDNF, Fig 3I
# Protocol: as §1, with “BDNF.” for “BDNF. (C) Hippocampal neurons from WT mice at DIV 7 were immunostained with antibodies against MDGA2 (red) and TrkB (green), and then counter-stained with DAPI (blue). Images were acquired by a confocal microscope. Scale bar: 10 μm. (D) Surface plasmon resonance (SPR) analysis of the binding between recombinant MDGA2 protein and recombinant TrkB protein. TrkB was immobilized on a Biacore CM5 chip and tested for its binding with MDGA2 at the concentrations indicated. (E) Computer simulation of the binding mode of TrkB and MDGA2. The predicted binding domain of TrkB (the d5 domain) is highlighted by a red square and labeled in brown. The predicted binding domain of MDGA2 (the MAM domain) is highlighted by a red square and labeled in yellow.”
# [1] = tested on: TrkB signaling (pTrkB, pAkt, pmTOR); assay: Immunoblotting of TrkB/Akt/mTOR phosphorylation in primary neurons transfected with MDGA2, ΔMAM or V930I; format: cell-based, mouse; conditions: for pAkt level normalized to total protein / pTrkB level normalized to total protein / pmTOR level normalized to total protein: KO neurons transfected, WT/Ctrl set to one
# Protocol: Fig 3 MDGA2 interacts with TrkB and suppresses TrkB activity. (A) Primary hippocampal neurons derived from Mdga2^ +/− (Het) mice and their wild-type (WT) littermates at DIV 7 were treated with different doses of BDNF for 30 min. Equal amounts of protein lysates were subjected to immunoprecipitation (IP) with an anti-TrkB antibody, followed by immunoblotting with an anti-phosphotyrosine (pTyr) antibody or the anti-TrkB antibody. The pTyr levels were quantified by densitometry, normalized to total TrkB levels, and then compared to those of WT controls. n = 3 per group. (B) WT mouse brain lysates were subjected to IP with an anti-MDGA2 antibody and a control IgG, and immunoblotted (IB) for the components indicated. mBDNF, mature BDNF; ImBDNF, immature BDNF. (C) Hippocampal neurons from WT mice at DIV 7 were immunostained with antibodies against MDGA2 (red) and TrkB (green), and then counter-stained with DAPI (blue). Images were acquired by a confocal microscope. Scale bar: 10 μm. (D) Surface plasmon resonance (SPR) analysis of the binding between recombinant MDGA2 protein and recombinant TrkB protein. TrkB was immobilized on a Biacore CM5 chip and tested for its binding with MDGA2 at the concentrations indicated. (E) Computer simulation of the binding mode of TrkB and MDGA2. The predicted binding domain of TrkB (the d5 domain) is highlighted by a red square and labeled in brown. The predicted binding domain of MDGA2 (the MAM domain) is highlighted by a red square and labeled in yellow. (F) HEK293T cells were co-transfected with TrkB-Flag and GFP-tagged full-length MDGA2 (MDGA2-GFP) or an MDGA2 deletion fragment lacking the entire MAM domain (ΔMAM-GFP). Cell lysates were subjected to IP with control IgG and antibodies against Flag or GFP, and immunoblotted for the components indicated. […] The scheme of MDGA2-ΔMAM is also shown. (G) HeLa cells were co-transfected with TrkB that is tagged with the N-terminal Venus fragment (TrkB-VN) and full-length MDGA2 or MDGA2-ΔMAM that are tagged with the C-terminal Venus fragment (MDGA2-VC or ΔMAM-VC) for 24 h. After immunostaining with antibodies against MDGA2/MDGA2-ΔMAM (pink) and TrkB (red), cells were observed by confocal microscopy. Venus signal (green) indicates the interaction between MDGA2 and TrkB. Schematic diagrams depicting the BiFC assay are also shown. Scale bars: 10 μm. (H, I) Equal amounts of protein lysates from primary neurons derived from Het, KO, and their WT littermate mice (H), and from WT primary neurons transfected with GFP control, MDGA2-GFP or ΔMAM-GFP (I) were subjected to IP with IgG and an anti-BDNF antibody, and then immunoblotted for the components indicated. Immunoprecipitated TrkB levels were quantified by densitometry, normalized to input levels, and compared to respective controls (set to one arbitrary units). n = 3 per group. (J) Neurons derived from KO mice were transfected with GFP control (Ctrl), MDGA2-GFP, or MDGA2-ΔMAM-GFP, and neurons derived from their WT littermates were transfected with GFP control (Ctrl). Equal amounts of protein lysates were subjected to immunoblotting for the proteins indicated. Levels of phosphorylated proteins were quantified by densitometry, normalized to respective total protein levels and compared to controls (set to one arbitrary units). n = 6 per group. Data represent mean ± SEM. P-values were determined by two-tailed unpaired Student t-test in (A) and one-way ANOVA with Tukey’s multiple comparisons test in (H, I, J). *p < 0.05, **p < 0.01, ***p < 0.001, ns: not significant. The data underlying this figure can be found in S1 Data, specifically in the sheet labeled “Figure 3”.
# Fig 7 The autism spectrum disorder (ASD)-associated MDGA2 V930I mutation impairs the MDGA2-TrkB interaction and MDGA2’s inhibitory effect on the tyrosine kinase B (TrkB) signaling. (A) Schematic depiction of the WT human MDGA2 and its V930I mutation constructs that are tagged with GFP. […]
# TrkB (TrkB-VN) = assay: BiFC assay in HeLa cells (TrkB-VN with MDGA2-VC or ΔMAM-VC); format: cell-based, human; conditions: 24 h, Venus fluorescence
# Protocol: as §1, with “BDNF.” for “BDNF. (C) Hippocampal neurons from WT mice at DIV 7 were immunostained with antibodies against MDGA2 (red) and TrkB (green), and then counter-stained with DAPI (blue). Images were acquired by a confocal microscope. Scale bar: 10 μm. (D) Surface plasmon resonance (SPR) analysis of the binding between recombinant MDGA2 protein and recombinant TrkB protein. TrkB was immobilized on a Biacore CM5 chip and tested for its binding with MDGA2 at the concentrations indicated. (E) Computer simulation of the binding mode of TrkB and MDGA2. The predicted binding domain of TrkB (the d5 domain) is highlighted by a red square and labeled in brown. The predicted binding domain of MDGA2 (the MAM domain) is highlighted by a red square and labeled in yellow.”
molecule,measurement,setting,value
B1,interaction with TrkB (Co-IP),TrkB (TrkB-Flag),abolished the MDGA2-TrkB interaction
same,interaction between BDNF and TrkB upon overexpression,BDNF-TrkB interaction,not MDGA2-ΔMAM
same,pAkt level normalized to total protein,[1]; replicate 1,2.92 arbitrary units
same,pTrkB level normalized to total protein,[1]; replicate 1,2.14 arbitrary units
same,pmTOR level normalized to total protein,[1]; replicate 1,3.01 arbitrary units
same,pAkt level normalized to total protein,[1]; replicate 2,2.51 arbitrary units
same,pTrkB level normalized to total protein,[1]; replicate 2,2.17 arbitrary units
same,pmTOR level normalized to total protein,[1]; replicate 2,2.5 arbitrary units
same,pAkt level normalized to total protein,[1]; replicate 3,2.41 arbitrary units
same,pTrkB level normalized to total protein,[1]; replicate 3,2.23 arbitrary units
same,pmTOR level normalized to total protein,[1]; replicate 3,2.06 arbitrary units
same,pAkt level normalized to total protein,[1]; replicate 4,2.21 arbitrary units
same,pTrkB level normalized to total protein,[1]; replicate 4,2.41 arbitrary units
same,pmTOR level normalized to total protein,[1]; replicate 4,1.59 arbitrary units
same,pAkt level normalized to total protein,[1]; replicate 5,1.76 arbitrary units
same,pTrkB level normalized to total protein,[1]; replicate 5,2.01 arbitrary units
same,pmTOR level normalized to total protein,[1]; replicate 5,1.49 arbitrary units
same,pAkt level normalized to total protein,[1]; replicate 6,1.68 arbitrary units
same,pTrkB level normalized to total protein,[1]; replicate 6,1.69 arbitrary units
same,pmTOR level normalized to total protein,[1]; replicate 6,1.31 arbitrary units
same,"overactivation of TrkB signaling (pTrkB, pAkt, pmTOR) upon expression","[1]; Mdga2-/- neurons, Fig 3J, n = 6",not MDGA2-ΔMAM
same,interaction with TrkB (BiFC),TrkB (TrkB-VN),not MDGA2-ΔMAM
